Test in all cases: cell-based or functional assay
Test [1] deals with human FGFR3 IIIb on FDCP-1 cells (FDCP-FGFR3 IIIb #122) (human), P22607.
Test [2] concerns the target human FGFR3 IIIc G380R on FDCP-1 cells (FGFR3 IIIc G380R #1) (human), P22607.
For test [3], the target named is human FGFR3 IIIc on FDCP-1 cells (FDCP-FGFR3 IIIc #109) (human), P22607.
Test [4] addresses FDCP-FGFR3 IIIb and FDCP-FGFR3 IIIc cell lines.

Positions count from the first letter of the chain named.

Chain of human FGFR3 IIIc G380R on FDCP-1 cells (FGFR3 IIIc G380R #1) (human), P22607 (P22607 23-806 G380R): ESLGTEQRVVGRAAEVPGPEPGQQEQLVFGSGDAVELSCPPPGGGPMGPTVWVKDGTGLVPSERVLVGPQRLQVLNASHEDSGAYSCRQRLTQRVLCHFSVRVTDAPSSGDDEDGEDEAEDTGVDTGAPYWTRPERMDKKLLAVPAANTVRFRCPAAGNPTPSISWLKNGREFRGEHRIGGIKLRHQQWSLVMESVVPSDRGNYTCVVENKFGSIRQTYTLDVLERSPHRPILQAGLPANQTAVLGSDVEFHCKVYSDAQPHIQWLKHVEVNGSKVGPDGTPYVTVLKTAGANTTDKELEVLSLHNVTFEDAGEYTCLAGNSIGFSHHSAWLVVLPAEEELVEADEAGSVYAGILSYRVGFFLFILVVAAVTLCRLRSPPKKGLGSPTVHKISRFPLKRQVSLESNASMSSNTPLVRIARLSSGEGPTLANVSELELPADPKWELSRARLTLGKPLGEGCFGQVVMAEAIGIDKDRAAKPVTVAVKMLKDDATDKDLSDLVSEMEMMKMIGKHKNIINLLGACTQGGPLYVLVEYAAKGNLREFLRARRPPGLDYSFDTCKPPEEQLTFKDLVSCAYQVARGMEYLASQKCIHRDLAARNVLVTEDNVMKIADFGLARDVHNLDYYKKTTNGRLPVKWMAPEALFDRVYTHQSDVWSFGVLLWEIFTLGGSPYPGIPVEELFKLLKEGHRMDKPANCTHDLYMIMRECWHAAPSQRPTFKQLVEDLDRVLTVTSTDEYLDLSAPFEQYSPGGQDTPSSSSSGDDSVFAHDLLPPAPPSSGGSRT
Chain of human FGFR3 IIIc on FDCP-1 cells (FDCP-FGFR3 IIIc #109) (human), P22607 (P22607 23-806): as the sequence (P22607 23-806 G380R) above, with R358G counted along it
Chain of human FGFR3 IIIb on FDCP-1 cells (FDCP-FGFR3 IIIb #122) (human), P22607 (P22607 23-806): as the sequence (P22607 23-806 G380R) above, with R358G counted along it

B1: anti-FGFR3 monoclonal antibody 15D8 (antibody, mouse IgG1, kappa)
heavy: EIQLQQSGPELVKPGASVKVSCKASGYAFTSYNMYWVKQSHGKSLEWIGYIDPYNGGTSYNQKFKGKATLTVDKSSSTAYMHLNSLTSEDSAVYYCAREGGNYEAWFAYWGQGTLVTVSAAKTTPPSVYPLAPGSAAQTNSMVTLGCLVKGYFPEPVTVTWNSGSLSSGVHTFPAVLQSDLYTLSSSVTVPSSTWPSETVTCNVAHPASSTKVDKKIVPRDCGCKPCICTVPEVSSVFIFPPKPKDVLTITLTPKVTCVVVDISKDDPEVQFSWFVDDVEVHTAQTQPREEQFNSTFRSVSELPIMHQDWLNGKEFKCRVNSAAFPAPIEKTISKTKGRPKAPQVYTIPPPKEQMAKDKVSLTCMITDFFPEDITVEWQWNGQPAENYKNTQPIMDTDGSYFVYSKLNVQKSNWEAGNTFTCSVLHEGLHNHHTEKSLSHSPGK
light: QIVLTQSPALMSASPGEKVTMTCSASSSVSYMYWYQQKPRSSPKPWIYLTSYLASGVPARFSGSGSGTSYSLTISSMEAEDAATYYCQQWSSYPLTFGAGTKLELKRADAAPTVSIFPPSSEQLTSGGASVVCFLNNFYPKDINVKWKIDGSERQNGVLNSWTDQDSKDSTYSMSSTLTLTKDEYERHNSYTCEATHKTSTSPIVKSFNRNEC
In test [1], B1 had an FDCP Proliferation IC50, FGFR3 IIIb of 140 pM. Further, in test [2], the FDCP Proliferation IC50, FGFR3 IIIc G380R stood at 3100 pM. In test [3], the FDCP Proliferation IC50, FGFR3 IIIc amounted to 280 pM.

B2: anti-FGFR3 monoclonal antibody 27H2 (antibody, mouse IgG1, kappa)
heavy: B1 heavy with S59R, L70M
light: B1 light with Y52N, Y93N
For the molecule B2, the FDCP Proliferation IC50, FGFR3 IIIb in test [1] came to 560 pM. For the same molecule, in test [2], the FDCP Proliferation IC50, FGFR3 IIIc G380R amounted to 8800 pM. The molecule further displayed an FDCP Proliferation IC50, FGFR3 IIIc in test [3] of 590 pM.

B3: anti-FGFR3 monoclonal antibody 2G4 (antibody, mouse IgG1, kappa)
heavy: B1 heavy with S59R, Y60D
light: B1 light with Y52N, Y93N
Regarding B3, the FDCP Proliferation IC50, FGFR3 IIIb in test [1] was found to be 630 pM. Further, the FDCP Proliferation IC50, FGFR3 IIIc G380R in test [2] turned out to be 11700 pM. Moreover, the FDCP Proliferation IC50, FGFR3 IIIc in test [3] was 500 pM.

B4: anti-FGFR3 monoclonal antibody 4E7 (antibody, mouse IgG1, kappa)
heavy: B1 heavy with S59R
light: B1 light with Y52N, Y93N
For B4, the FDCP Proliferation IC50, FGFR3 IIIb in test [1] stood at 900 pM. Besides, in test [2], the FDCP Proliferation IC50, FGFR3 IIIc G380R came out at 3500 pM. The FDCP Proliferation IC50, FGFR3 IIIc in test [3] was 620 pM.

B5: anti-FGFR3 monoclonal antibody 20B4 (antibody, mouse IgG1, kappa)
heavy: EIQLQQSGPELVKPGASVKVSCKASGYSLTDYNMYWVKQSHGKSLEWIGYIDPYNGGTSYNQKFKGKATLTVDKSSSTAFMHLNSLTSEDSAVYYCARSLGPDFDYWGQGTTLTVSSAKTTPPSVYPLAPGSAAQTNSMVTLGCLVKGYFPEPVTVTWNSGSLSSGVHTFPAVLQSDLYTLSSSVTVPSSTWPSETVTCNVAHPASSTKVDKKIVPRDCGCKPCICTVPEVSSVFIFPPKPKDVLTITLTPKVTCVVVDISKDDPEVQFSWFVDDVEVHTAQTQPREEQFNSTFRSVSELPIMHQDWLNGKEFKCRVNSAAFPAPIEKTISKTKGRPKAPQVYTIPPPKEQMAKDKVSLTCMITDFFPEDITVEWQWNGQPAENYKNTQPIMDTDGSYFVYSKLNVQKSNWEAGNTFTCSVLHEGLHNHHTEKSLSHSPGK
light: QIVLTQSPAIMSASPGEKVTMTCSASSSVNYMHWYQQKSGTSPKRWIYDTSKLASGVPARFSGSGSGTSYSLTISSMEAEDTATYYCQQWNSNPLTFGAGTKLELKRADAAPTVSIFPPSSEQLTSGGASVVCFLNNFYPKDINVKWKIDGSERQNGVLNSWTDQDSKDSTYSMSSTLTLTKDEYERHNSYTCEATHKTSTSPIVKSFNRNEC
B5: the maximal inhibition of FGF1 induced proliferation of FDCP-FGFR3 cell lines in test [4] was 40%. In addition, the FDCP Proliferation IC50, FGFR3 IIIb in test [1] is 1510 pM. In test [3], this molecule had an FDCP Proliferation IC50, FGFR3 IIIc of 102000 pM.

(Values after patent publication US20100003258A1.)
